Experimental data as given in patent US20190119366A1 (ADC THERAPEUTICS, published 2019).

T1: recombinant human KAAG1 (Kidney associated antigen 1) (human, UniProt Q9UBP8 1-84)
T1 construct: also called KAAG1 protein
T1 sequence: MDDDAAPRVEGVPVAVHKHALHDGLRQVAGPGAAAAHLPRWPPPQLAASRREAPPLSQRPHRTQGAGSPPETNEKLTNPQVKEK


How the values were obtained:
[1] = biological target: T1, recombinant human KAAG1 (Kidney …); test: SPR (BioRad ProteOn XPR36): antibody captured on an anti-human IgG Fc surface, KAAG1 injected as analyte, 1:1 Langmuir fit
Method: Immediately after the activation, a 13 μg/mL solution of anti-human IgG Fc fragment specific in 10 mM NaOAc pH 4.5 was injected in the analyte direction at a flow rate of 25 μL/min until approximately 8000 resonance units (RUs) were immobilized. Remaining active groups were quenched by a 300 s injection of 1M ethanolamine at 30 μL/min in the analyte direction, and this also ensures mock-activated interspots are created for blank referencing. The screening of the 3A4 variants for binding to KAAG1 occurred in two steps: an indirect capture of 3A4 variants from cell supernatant onto the anti-human IgG Fc fragment specific surface in the ligand direction(vertical) followed by a KAAG1 injection in the analyte direction. Firstly, one buffer injection for 30 s at 100 uL/min in the ligand direction was used to stabilize the baseline. […] Four to five 3A4 variants along with wild-type 3A4 were simultaneously injected in individual ligand channels for 240 s at flow 25 μL/min. […] The first ligand channel was left empty to use as a blank control if required. This 3A4 capture step was immediately followed by two buffer injections in the analyte direction to stabilize the baseline, and then the gel filtration purified KAAG1 was injected. For a typical screen, five KAAG1 concentrations (8, 2.66, 0.89, 0.29, and 0.098 nM) and buffer control were simultaneously injected in individual analyte channels at 50 μL/min for 120 s with a 600s dissociation phase, resulting in a set of binding sensorgrams with a buffer reference for each of the captured 3A4 variants. The anti-human IgG Fc fragment specific—3A4 complexes were regenerated by a 18 s pulse of 0.85% phosphoric acid for 18 s at 100 μL/min to prepare the anti-human IgG Fc fragment specific surface for the next injection cycle. Sensorgrams were aligned and double-referenced using the buffer blank injection and interspots, and the resulting sensorgrams were analyzed using ProteOn Manager software v3.0.

[2] = biological target: T1, recombinant human KAAG1 (Kidney …); test: not described; list of antibodies generated

Binder | binding result [2] | further results
chimeric 3A4 anti-KAAG1 antibody (mouse variable regions, human IgG1/kappa constant regions) (antibody, V domains shown, It is treated here as the same molecule; also called LcHc; murine 3A4 (LcHc)) VH: QIQLVQSGPEMVKPGASVKMSCKASGYTFTDDYMSWVKQSHGKSLEWIGDINPYNGDTNYNQKFKGKAILTVDKSSSTAYMQLNSLTSEDSAVYYCARDPGAMDYWGQGTSVTVSS VL: DVVMTQTPLSLAVSLGDQASISCRSSQSLLHSNGNTYLEWYLQKPGQSPKLLIHTVSNRFSGVPDRFSGSGSGTDFTLKISRVEAEDLGVYYCFQGSHVPLTFGAGTRLELKR | – | Kd [1]: 16 pM; koff [1]: 0.000121 s⁻¹; kon [1]: 7.72e+06 M⁻¹ s⁻¹
3D1 anti-KAAG1 antibody (antibody, V domains shown, Variable regions only; Isolated from a Fab library) VH: EVQLQESGPDLVKPSQSLSLTCTVTGFSITSGYGWHWIRQFPGDKLEWMGYISFNGDYNYNPSLKSRISITRDTSKNQFFLQLSSVTTEDTATYYCASSYDGLFAYWGQGTLVTVSA VL: DIKMTQSPSSMYASLGERVTITCKASQDIHTYLNWFQQKPGKSPETLIYRANRLVDGVPSRFSGSGSGQDYSLTISSLEYEDMGIYYCLQYDEFPLTFGAGTKLELK | binds | –
3C2 anti-KAAG1 antibody (antibody, V domains shown, Variable regions only; Isolated from a Fab library) VH: DVQLQESGPDLVKPSQSLSLTCTVTGFSITSGYGWHWIRQFPGNKLEWMGYISFNGDSNYNPSLKSRISITRDTSKNQFFLQLNSVTSEDTATYYCASSYDGLFAYWGQGPLVTVSA VL: DIQMTQSPSSMYASLGERVTLTCKASQDIHNYLNWFQQKPGKSPKTLIHRANRLVAGVPSRFSGSGSGQDYSLTISSLEYEDLGIYYCLQYDAFPLTFGAGTKLELK | binds | –
3C4 anti-KAAG1 antibody (antibody, V domains shown) VH: EVQLQESGPDLVKPSQSLSLTCTVTGFSITSGYGWHWIRQFPGNKLEWMGYINYDGHNDYNPSLKSRISITQDTSKNQFFLQLNSVTTEDTATYYCASSYDGLFAYWGQGTLVTVSA VL: DIVMSQSPSSMYASLGERVTITCKASQDIHNFLNWFQQKPGKSPKTLIFRANRLVDGVPSRFSGSGSGQDYSLTISSLEFEDLGIYSCLQYDEIPLTFGAGTKLELR | binds | –
3F6 anti-KAAG1 antibody (antibody, V domains shown, Variable regions only; Isolated from a Fab library) VH: EVQLQQSGPELVKPGASVKMSCKASGYIFTEYNIHWVKQKPGQGPEWIGNINPYNDVTEYNEKFKGKATLTSDKASSTAYMDLSSLTSEDSAVYYCARWGLRNWGQGTLVTVSA VL: not shown | binds | –
3E8 anti-KAAG1 antibody (antibody, V domains shown, Variable regions only; Isolated from a Fab library) VH: EVQLQQSVPELVKPGASVKMSCKTSGYTFTEYNMHWVKQKPGQGPEWIGNINPYNNVTEYNEKFKGKATLTSDKSSSTAYLDLSSLTSEDSAVYYCARWGLRNWGQGTLVTVSA VL: not shown | binds | –
3A2 anti-KAAG1 antibody (antibody, V domains shown, Variable regions only; Isolated from a Fab library) VH: EIQLQQSGPELVKPGASVKMSCKTSGYTFTDYNMHWVKQKPGQGLEWIGYINPYNDVTEYNEKFKGRATLTSDKSSSTAYMDLSSLTSDDSAVYFCAWFGLRQWGQGTLVTVST VL: not shown | binds | –
3E10 anti-KAAG1 antibody (antibody, V domains shown, Variable regions only; Isolated from a Fab library) VH: EVQLQQSGPELVKPGASVKISCKASGDTFTDYYMNWVKQSHGKSLEWIGDINPNYGGITYNQKFKGKATLTVDTSSSTAYMELRGLTSEDSAVYYCQAYYRNSDYWGQGTTLTVSS VL: DIVMTQAAPSVPVTPGESVSISCRSSKSLLHSNGNTYLYWFLQRPGQSPQLLIYRMSNLASGVPDRFSGSGSGTAFTLRISRVEAEDVGVYYCMQHLEYPYTFGGGTKLEIK | binds | –
4A2 anti-KAAG1 antibody (antibody, V domains shown, Variable regions only; Isolated from a Fab library) VH: QVKLQQSGTELVRPGASVTLSCKASGYKFTDYEMHWVKQTPVHGLEWIGGIDPETGGTAYNQKFKGKAILTADKSSTTAYMELRSLTSEDSAVYYCISYAMDYWGQGTSVTVSS VL: DIVMTQSPSSLAMSVGQKVTMNCKSSQSLLNNSNQKNYLAWYQQKPGQSPKLLLYFASTRESGVPDRFIGSGSGTYFTLTISSVQAEDLADYFCQQHYSTPLTFGAGTKLDLK | binds | –
3E6 anti-KAAG1 antibody (antibody, V domains shown, Variable regions only; Isolated from a Fab library) VH: QVQLQQSGAELVRPGASVTLSCKASGYTFSDYEMHWVKQTPVHGLEWIGGIDPETGDTVYNQKFKGKATLTADKSSSTAYMELSSLTSEDSAVYYCISYAMDYWGQGTSVTVSS VL: DIQMTQSPSSMYASLGERVTLTCKASQDIHNYLNWFQQKPGKSPKTLIHRANRLVAGVPSRFSGSGSGQDYSLTISSLEYEDLGIYYCLQYDAFPLTFGAGTKLELK | binds | –
3D3 anti-KAAG1 antibody (antibody, V domains shown) VH: EVQLQQSVAELVRPGASVTLSCKASGYIFTDYEIHWVKQTPVHGLEWIGVIDPETGNTAFNQKFKGKATLTADISSSTAYMELSSLTSEDSAVYYCMGYSDYWGQGTTLTVSS VL: DIVMTQSPSSLAVSIGQKVTMNCKSSQSLLNSNFQKNFLAWYQQKPGQSPKLLIYFASTRESSIPDRFIGSGSGTDFTLTISSVQAEDLADYFCQQHYSTPLTFGAGTKLELK | binds | –
3G12 anti-KAAG1 antibody (antibody, V domains shown, Variable regions only; Isolated from a Fab library) VH: EVQLQQSVAELVRPGASVTVSCKASGYIFTDYEIHWVKQTPAHGLEWIGVIDPETGNTAFNQKFKGKATLTADISSSTAYMELSSLTSEDSAVYYCMGYSDYWGQGTTLTVSS VL: DIVMTQSPKFMSTSVGDRVSITCKASQDVGTAVAWYQQKPGQSPELLIYWTSTRHTGVPDRFSGSGSGTDFTLTISSVQAEDLADYFCQQHYSIPLTFGAGTKLELR | binds | –
3E9 anti-KAAG1 antibody (antibody, V domains shown, Variable regions only; Isolated from a Fab library) VH: EVQLQQSGAELVRPGASATLSCKASGYTFTDYEMHWVKQTPVHGLEWIGVIDPETGSTAYNQKFKGKATLTADKSSSTAYMELSSLTSEDSAVYYCMGYADYWGQGTTLTVSS VL: not shown | binds | –
3G8 anti-KAAG1 antibody (antibody, V domains shown, Variable regions only; Isolated from a Fab library) VH: QVQLKQSGAELVRPGASVTLSCKASGYTFTDYEVHWVKQTPVHGLEWIGVIDPATGDTAYNQKFKGKATLTADKSSSTAYMEVSSLTSEDSAVYYCMGYSDYWGQGTTLTVSS VL: not shown | binds | –
3C3 anti-KAAG1 antibody (antibody, V domains shown, Variable regions only; Isolated from a Fab library) VH: EVQLQQSVAEVVRPGASVTLSCKASGYTFTDYEIHWVKQTPVHGLEWIGVIDPETGVTAYNQRFRDKATLTTDKSSSTAYMELSSLTSEDSAVYFCMGYSDYWGQGTTLTVSS VL: not shown | binds | –
3G5 anti-KAAG1 antibody (antibody, V domains shown, Variable regions only; Isolated from a Fab library) VH: QVQLQQPGAELVRPGASVTLSCKASGYTFTDYEIHWVKQTPVHGLEWIGVLDPGTGRTAYNQKFKDKATLSADKSSSTAYMELSSLTSEDSAVYYCMSYSDYWGPGTTLTVSS VL: not shown | binds | –
3B1 anti-KAAG1 antibody (antibody, V domains shown, Variable regions only; Isolated from a Fab library) VH: QVQLQQPGAELVRPGASVTLSCKASGYTFTDYEIHWVKQTPVHGLEWIGVIDPETGGTAYNQKFKGKATLTTDKSSSTAYMELRSLTSEDSAVYYCMGYSDYWGQGTTLTVSS VL: not shown | binds | –
3F7 anti-KAAG1 antibody (antibody, V domains shown, Variable regions only; Isolated from a Fab library) VH: QAYLQQSGAELVRPGASVTLSCKASGYTFTDYEIHWVKQTPVHGLEWIGVIDPETGDTAYNQKFKDKATLTADKASSTAYMELSSLTSEDSAVYYCMGYSDYWGQGTTLTVSS VL: not shown | binds | –
3F10 anti-KAAG1 antibody (antibody, V domains shown, Variable regions only; Isolated from a Fab library) VH: EVQLQQSVAELVRPGAPVTLSCKASGYTFTDYEVHWVKQTPVHGLEWIGVIDPETGATAYNQKFKGKATLTADKSSSAAYMELSRLTSEDSAVYYCMSYSDYWGQGTTLTVSS VL: DIVMTQSPSSLTMSVGQKVTMSCKSSQSLLNTSNQLNYLAWYQQKPGQSPKLLVYFASTTESGVPDRFIGSGSGTDFTLTISSVQAEDLADYFCQQHYSTPLTFGAGTKLELK | binds | –
3F4 anti-KAAG1 antibody (antibody, V domains shown, Variable regions only; Isolated from a Fab library) VH: EVQLQQSGAELVRPGASVTLSCKASGYTFTDYEIHWVKQTPVHGLEWIGVIDPETGSTAYNQKFKGKATLTADKASSTAYMELSSLTSEDSAVYYCMGYSDYWGQGTTLTVSS VL: DIVMTQSPSSLTVTAGEKVTMSCKSSQSLLNTSNQKNYLAWYQQKPGQSPKLLVYFASTRASGVPDRFIGSGSGTDFTLTISSVQAEDLADYFCQQHYSTPLTFGAGTKLELK | binds | –
3E12 anti-KAAG1 antibody (antibody, V domains shown, Variable regions only; Isolated from a Fab library) VH: QVQLQQSEAELVKPGASVKLSCKASGYTFTDYEIHWVKQTPVHGLEWIGVIDPETGDTAYNQKFKGKATLTADKSSSTAYMELSRLTSEDSAVYYCMGHSDYWGQGTTLTVSS VL: not shown | binds | –
3B8 anti-KAAG1 antibody (antibody, V domains shown, Variable regions only; Isolated from a Fab library) VH: EVQLQQSGAELVRPGASVTLSCKASGYTFTDYEIHWVKQTPVHGLEWIGVIDPETGDTAYNQNFTGKATLTADKSSSTAYMELSSLTSEDSAVYYCMGYADYWGQGTTLTVSS VL: not shown | binds | –
3B11 anti-KAAG1 antibody (antibody, V domains shown, Variable regions only; Isolated from a Fab library) VH: EVQLQQSVAELVRPGASVTLSCKASGYTFTDYEMHWVKQTPVRGLEWIGVIDPATGDTAYNQKFKGKATLTADKSSSAAFMELSSLTSEDSAVYYCMGYSDYWGQGTTLTVSS VL: not shown | binds | –
